The nanobody polyreactivity screen of Harvey et al. (2022)

Test: yeast display, Sf9 membrane polyspecificity reagent, FACS + sequencing; frameworks hold sequencing errors
In short: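 Synthetic nanobody libraries on Saccharomyces cerevisiae BJ5465 were galactose-induced for 36–48 hours, stained 1 hour at 4 °C with 10% biotinylated, detergent-solubilized Sf9 membrane reagent and enriched on streptavidin microbeads. FACS then separated cells into low and high (top ~1%) gates by anti-HA (expression) and streptavidin (reagent binding) fluorescence. Genes were colony-PCR amplified, MiSeq 2 × 250 sequenced and CDR-length filtered. A clone's polyreactivity label is that of its gate of origin.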

Sequence | polyreactivity (PSR sort gate)
QVQLVESGGGLVQAGGSLRLSCAASGYIFWSYAMGWYRQAPGKERELVAAISAYGCRTYYADSVKGRFTISRDNAKTTVYLQMNSLKPEDTAVYYCNADTGNHAYWYYGEFYYYTYDYWGQGTQVTVSS | low polyreactivity
QVQLVESGGGLVQAVGSLRLSCAASGGTIDIYAMGWYRQAPAKERELVARISYSSGSTHYADSVKGRFTNSRDNAKNTVYLQMNSLKPEDTAVYYCAATAYWFYAKYYYWGQGTQVTVSS | high polyreactivity
QVHLVESGGGLVQAGGSLRLSCAASGGNFRPNAMGWYRQAPGKERELVASITRGGSTNYADSVKGRFTISRDNAKNTVYLQMNSLKPEDTAVYYCSALLRYTRTLYYSWGQGTQVTVSS | high polyreactivity
QVQLVESGGGLVQAGGSLRLSCADSGITFVRNAMGWYIHAPGKERECVAAISGSGVSTYADSVKGRFTISRDNAKNTVYLQMNILKPEDTAVYYCNTDEWYHFYHGAHKYDYWGQATQVTVSS | low polyreactivity
QVQLVESGVGLVQAGGSLRLSCAASGRTFRANAMGWYRQAPGKERELVAAITWDGGSTYYADSVKGRFTISRDNAKNTVYLLMYSLKPEDTAVYYCNTYPYLWGQGTQVTLSS | low polyreactivity
QVQLVESGGGLVQAGGSLRLSCAASGLIFKYNAMGWYRQAPGKERELVAAITWSGGITYADSVKGRFTISRDNAKNTVYLQMNSLKPEDTAVYYCAARGYWQPRPRRRYDYWGQGTQVTVSS | high polyreactivity
QVQLVESGGGLVQAGGSLRFSCDASGRTFRYYAMGWYRQAPGKERELVAAIRSGGTTYYADSVKGRFTISRDNAKNTVYFQMNSLKPEDTAVYYCAAKVPWKYSRVYRVGFDYWGQGTQVTVSS | high polyreactivity
QVQLVESGGGLVQAGGSLRLSCDASGRIFLHYAMRLYRQAPGTERELVAAISRSGGSTYYADSVKGRFTISRDNAKNTVYLQMNSLKPEDTAVYYCAADGPGDYLTLEWYWFTYYYWGQGTQVTVSS | high polyreactivity
QVQLVESGGGLVQAGGSLRLSCAASGIIFAYNAMGWYRQAPGKERELVAAISVIAGTTYYADSVKGRFTISRDNAKNTVYLQMNSLKPEDTAVYYCAVDSVQYGGGYERLHELYYWGQGTQVTVSS | low polyreactivity
QVQLVESGGGLVQAGGSLRLSCAASGRTFGRNAMGWYRQAPGKERELVADISLRGGRTYYADSVKGRFTISRDNAKNTVYLQMNSLKPEDTAVYYCAAVQPVGLYPRTKYYYWGQGTQVTVSS | high polyreactivity
QVQLVESGGGLVQAGGSLRLSCAASGFIFDQYAMGWYRQAPGKERELVAAISSGGRTYYADSVKGRFTISRDNAKNTVYLQMNSLKPEDTAVYYCAAKSWTDSRVTGYWGQGTQVTVSS | high polyreactivity
QVQLVESGGGLVQAGGSLRLSCAASGRIFTGNVMGWYRQAPGKERELVAAISVSGGRTYYADSVKGRFTISRDNAKNNVYLQMNSLKPEDTAVYYCNARFSRVWYGGDYWGQGTQVTVSS | high polyreactivity
QVQLQESGGGLVQAGGSLLSCAASGPISYYREMGWYRQAPGKERELVAGFGVGTITYYADSVKGRFTISRDNAKNTVYLQMNSLKPEVTAVYYCAAHIDGNDSHAYWGQGTQVTVIS | low polyreactivity
QVQLVESGGGLVQAGGSLRLSCAASGLIFYRNAMGRTRQAPGKERELVAAISASGGRTYYADSVKGRFTISRDTEKNTVYLPMNSLKPEDTAVYYCAAKSLLLSMDYWGQGTQVTVSS | high polyreactivity
QVQLVESGGGLVQAGGSLRLSCAASGRIFGQYAMGWYRQAPGKERELVASISRRGGSTNYADSVKGRFTISRDNAKNTVYLQMNSLKPEDSAVYYCAARTWRRQYYRTRYEYWGQGTQVNVSS | high polyreactivity
QVQLVESRGGLVQAGGSLRLRCAASGFILDTYGIVWYRQAPGKERELVAAIYQSDVSTYYADSVKGRFTISRDNAKNTVYLQMNSLKPEDTAVYYCAADRGVLRWFCQVLYDYWGQGTQVTVSS | low polyreactivity

Sequence | polyreactivity (PSR sort gate)
QVQLVESGGGLVQAGGSLRLSCAASGSTSYWYAMGWYRQAPGKESELVATIRSRGGSTSYADSVKGRFTIARDNAKNTVYLQMNSLKPEDTAVNYCNTRKLYQVDYDYLGQGTQVTVSS | high polyreactivity
QVQLVESGGGLVQAGGSLRLSCAASGSIFFLYAMGWYRQAPGKEWELVAAISGGGGSTYYADSVKGRFTISRDNAKNTVYFQMNCLKPEDTAVYNSAARTRVTKREYDYWGQGTQVTVSS | high polyreactivity
QVQLVESGGGLVQAGGSLRLSCAASGFTFYIYAMGWYRQAPGKERELVASISARGGSTYYADSVKGRFTISRDNAKNTVYLQMNSLKPEDTAVYYCNALYNYAEIYGRGYWGQGTQVTVSS | high polyreactivity
QVQLVESGGGLVQAGGRLRLSCAATGFTFTYYPMGWYRQATGKETEFVAAITWNSGTTYYADSVKGRFTISRDNAKNTVYLQMISLKPEDTAVYYCNALWHRQRWSRGDYWRQGTQVTVSS | high polyreactivity
QVQLVESGGGLVQAGGSLRLSCAASGIIFNDYAMGWYRQAPGKERELVATISWSGGSTYADSVKGRFTISRDNAKNTVYLQMNSLKPEDTAVYYCAAVPRRSYGGYPYYYWGQGTQVTVSS | low polyreactivity
QVQHVESVGRLVQAGGSLLLSCAASGSTFWIYAMGWKRQAPVKERELVAAISWRGGRTYYADSVKGRFTISRDNAKNTVYLQMYSLKPEDTGVYYCNAQKRDVSMGYWGLGTQVTVSS | high polyreactivity
QVQLVESGGGLVQAGGSLRLSCAPSGSIFVKNAMGWYRQAPGKERELVAFITIRTATTYYADSVKGRFTISRDNAKNTVYLQMNSLKPEDTAVYYCAAAKRQRGYLQREGNYWGQGTQVTVSS | low polyreactivity
QVQLVESGGVLVQAGGSLRLSCAASGFIFSSNAMGWCREAPGKERELVAAITGGGGRTRYADSVKGRFTISRDNAKNTVYLQMNSLKPEDTAVYYCAAEVYSIWWYDYWGQGTQVTVSS | high polyreactivity
QVQLVESGGGLVQAGGSLRLSCAASGLTFYQYTMGWYRQAPGKERELVAAISRRGGSTYYADSVKGRFTISRDNAKNTVYLQMNSLKPEDTAVYYCAARALRYSSDFDYWGQGTQVTVSS | high polyreactivity
QVQLEESGGGLVQAGGSLRLSCAATGSTFGYAMGWYSQATGKEGEWVAALTSTGGSTYYADSLKGRFTISRDKAKNTVDLQMNSLKPYDTAVYYCAADAYWIRSRFLYRIRYNYWGQGTQVTVSS | high polyreactivity
QVQLVESGGGLVQAGGSLRLNCAASGSIFGQYTMGWYRQAPGKERELVADITSGGSTYYADSVKGRFTISRDNAKNTVYLQMNSLKPEDPAVYYCAAVDWKAHWEMGYWGQGTQVTVSS | low polyreactivity
QVQLVESGGGLVQAGGSLRLSCAASGITLSYYAMGWYGPAPGKERELVAAISSNGGRTYYADSVMGRFTISRDNAKNTVYLQMNSLKPEDTAVYYCAARVYDYPRFGYWGQGTQVTVSS | high polyreactivity
HVQLVESGGGLVQAGGSLRLSCAASGSIFVYNAMGWFRPAPGKERELVAGITFIGGSTYYADSVKGRFTISRDNAKNTVYLHMNSLKPVDNAVSYCATQEDWEDDWGQGTKVTVSS | low polyreactivity
QVQHVESGGGLVQAGRSLRLSCAASGFTIVQYAMGWYRQAPGKERELVARISPIGGSTYYADSVKGRFTISRDNAKNTVYLQMNSLKPEDTAVYYCNALRGPVKYYYWGQGTQVTVSS | low polyreactivity
QVQLVESGGGLVQAGGSLRLSCAASGSTFLYNTMGWYRPAPGKERELVAAITSAGSTNYADSVKGRFTISRDNAKNTVYLQMNSLKPEDTAVYYCAAVGPTSGARYTYDYWGQGTQVTVSS | low polyreactivity
